How the values were obtained:
c-Abl (mouse) = assay: phosphorylation enrichment, bacterial display (enrichment ratio); higher = better substrate or ligand; peptides without Tyr show the background
Fyn = Fyn (UniProt P06241); assay: as above
EPHB1 = EPHB1 (UniProt P54762); assay: as above
AncSZ = assay: as above
Fes = Fes (UniProt P07332); assay: as above
FGFR3 = FGFR3 (UniProt P22607); assay: as above
EPHB2 = EPHB2 (UniProt P29323); assay: as above
MERTK = MERTK (UniProt Q12866); assay: as above
Fer (mouse) = assay: as above
Hck = Hck (UniProt P08631); assay: as above
c-Src = assay: as above
FGFR1 = FGFR1 (UniProt P11362); assay: as above
Jak2 = Jak2 (UniProt O60674); assay: as above
c-Src SH2 = assay: SH2 binding enrichment of the phosphorylated peptide, bacterial display (enrichment ratio); higher = better substrate or ligand; peptides without Tyr show the background
SHP2-C SH2 = assay: as above
Grb2 SH2 = Grb2 SH2 (UniProt P62993); assay: as above
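Wherever SH2 binding enrichment of the phosphorylated peptide, bacterial display is given: peptide library displayed on the E. coli surface as eCPX fusions, selected cells deep-sequenced, score is each peptide's frequency after selection divided by its frequency in the input.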
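Wherever phosphorylation enrichment, bacterial display is given: 11-residue human phosphosite peptides and single-mutation variants displayed on the E. coli surface, counted by deep sequencing, each peptide's frequency after selection divided by its frequency in the unselected input library; frequency after pTyr selection over input frequency; kinase dosed for 20-30% of maximal phosphorylation in three min.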

Sequence of FGFR3 (P22607 whole entry, looked up): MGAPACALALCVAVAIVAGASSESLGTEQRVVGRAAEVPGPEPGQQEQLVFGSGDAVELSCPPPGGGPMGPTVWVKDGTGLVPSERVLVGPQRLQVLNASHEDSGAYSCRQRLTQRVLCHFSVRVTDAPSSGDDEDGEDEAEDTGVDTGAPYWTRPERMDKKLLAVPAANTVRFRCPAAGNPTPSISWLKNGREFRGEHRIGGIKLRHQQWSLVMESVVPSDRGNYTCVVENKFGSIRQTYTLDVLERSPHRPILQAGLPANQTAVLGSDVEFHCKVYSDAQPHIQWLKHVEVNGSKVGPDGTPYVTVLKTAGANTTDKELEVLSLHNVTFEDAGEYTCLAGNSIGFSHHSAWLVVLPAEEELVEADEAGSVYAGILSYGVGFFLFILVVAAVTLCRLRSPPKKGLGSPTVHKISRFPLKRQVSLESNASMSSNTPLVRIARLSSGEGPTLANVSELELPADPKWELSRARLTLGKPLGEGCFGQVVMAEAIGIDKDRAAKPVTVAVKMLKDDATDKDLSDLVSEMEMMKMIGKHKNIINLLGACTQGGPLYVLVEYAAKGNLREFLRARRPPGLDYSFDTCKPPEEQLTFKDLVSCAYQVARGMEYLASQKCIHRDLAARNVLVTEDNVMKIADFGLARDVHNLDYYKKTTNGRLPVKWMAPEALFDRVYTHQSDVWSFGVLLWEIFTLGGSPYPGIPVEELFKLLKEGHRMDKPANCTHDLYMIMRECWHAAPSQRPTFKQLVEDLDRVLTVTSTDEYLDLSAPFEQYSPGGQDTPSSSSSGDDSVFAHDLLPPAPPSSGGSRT
Sequence of Jak2 (O60674 whole entry, looked up): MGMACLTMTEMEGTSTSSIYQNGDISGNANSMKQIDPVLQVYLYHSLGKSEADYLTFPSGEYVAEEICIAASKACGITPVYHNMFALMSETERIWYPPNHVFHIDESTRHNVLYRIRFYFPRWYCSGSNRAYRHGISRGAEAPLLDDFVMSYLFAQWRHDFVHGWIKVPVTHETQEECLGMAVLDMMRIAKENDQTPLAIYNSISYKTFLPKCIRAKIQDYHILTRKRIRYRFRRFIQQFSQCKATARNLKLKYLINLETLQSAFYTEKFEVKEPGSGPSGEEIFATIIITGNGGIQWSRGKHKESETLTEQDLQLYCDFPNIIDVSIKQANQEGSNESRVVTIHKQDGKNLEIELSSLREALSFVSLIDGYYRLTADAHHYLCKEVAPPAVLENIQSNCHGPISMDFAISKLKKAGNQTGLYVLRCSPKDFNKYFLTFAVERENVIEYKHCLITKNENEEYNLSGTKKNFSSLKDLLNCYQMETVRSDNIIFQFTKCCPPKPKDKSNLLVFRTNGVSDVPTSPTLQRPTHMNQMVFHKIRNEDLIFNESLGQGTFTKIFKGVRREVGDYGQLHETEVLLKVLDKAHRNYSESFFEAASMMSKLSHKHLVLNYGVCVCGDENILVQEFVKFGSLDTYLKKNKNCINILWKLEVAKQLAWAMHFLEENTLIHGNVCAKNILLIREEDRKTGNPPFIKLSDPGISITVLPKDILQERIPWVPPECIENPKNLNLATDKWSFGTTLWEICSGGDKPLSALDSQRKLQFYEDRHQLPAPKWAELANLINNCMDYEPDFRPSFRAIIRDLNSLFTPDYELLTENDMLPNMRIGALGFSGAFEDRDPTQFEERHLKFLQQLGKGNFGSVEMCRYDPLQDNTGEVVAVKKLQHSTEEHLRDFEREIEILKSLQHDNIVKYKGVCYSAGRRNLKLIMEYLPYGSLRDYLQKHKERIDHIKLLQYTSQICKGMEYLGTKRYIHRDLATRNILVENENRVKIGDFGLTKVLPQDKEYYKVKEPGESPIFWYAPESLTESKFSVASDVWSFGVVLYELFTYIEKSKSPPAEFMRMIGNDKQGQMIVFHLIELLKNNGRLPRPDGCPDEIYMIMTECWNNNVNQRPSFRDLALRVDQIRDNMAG
Sequence of EPHB1 (P54762 whole entry, looked up): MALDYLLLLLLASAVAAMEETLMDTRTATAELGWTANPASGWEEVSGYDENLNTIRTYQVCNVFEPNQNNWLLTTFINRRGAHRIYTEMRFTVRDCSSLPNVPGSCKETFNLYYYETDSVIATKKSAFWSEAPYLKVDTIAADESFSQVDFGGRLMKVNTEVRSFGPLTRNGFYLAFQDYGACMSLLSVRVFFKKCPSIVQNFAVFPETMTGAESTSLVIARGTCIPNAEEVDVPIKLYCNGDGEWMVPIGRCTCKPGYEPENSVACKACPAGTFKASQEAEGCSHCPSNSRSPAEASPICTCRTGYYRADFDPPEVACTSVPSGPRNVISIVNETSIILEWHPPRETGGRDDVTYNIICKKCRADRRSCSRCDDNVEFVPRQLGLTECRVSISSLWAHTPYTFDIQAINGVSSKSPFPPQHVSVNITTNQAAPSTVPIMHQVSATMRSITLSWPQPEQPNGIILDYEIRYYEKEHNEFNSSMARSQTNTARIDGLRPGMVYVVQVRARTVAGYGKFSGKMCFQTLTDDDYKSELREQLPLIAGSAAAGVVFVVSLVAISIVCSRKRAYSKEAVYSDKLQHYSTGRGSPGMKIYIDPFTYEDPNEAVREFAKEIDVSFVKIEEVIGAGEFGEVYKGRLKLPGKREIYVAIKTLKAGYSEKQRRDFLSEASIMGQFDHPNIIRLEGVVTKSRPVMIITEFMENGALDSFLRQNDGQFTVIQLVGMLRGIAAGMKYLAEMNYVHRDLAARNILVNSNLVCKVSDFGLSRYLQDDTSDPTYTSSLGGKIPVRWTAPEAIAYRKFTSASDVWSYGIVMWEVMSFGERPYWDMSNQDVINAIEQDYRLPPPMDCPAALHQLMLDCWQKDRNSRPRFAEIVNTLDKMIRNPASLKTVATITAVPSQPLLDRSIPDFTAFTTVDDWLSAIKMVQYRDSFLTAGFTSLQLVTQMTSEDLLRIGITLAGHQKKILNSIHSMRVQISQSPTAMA
Sequence of EPHB2 (P29323 whole entry, looked up): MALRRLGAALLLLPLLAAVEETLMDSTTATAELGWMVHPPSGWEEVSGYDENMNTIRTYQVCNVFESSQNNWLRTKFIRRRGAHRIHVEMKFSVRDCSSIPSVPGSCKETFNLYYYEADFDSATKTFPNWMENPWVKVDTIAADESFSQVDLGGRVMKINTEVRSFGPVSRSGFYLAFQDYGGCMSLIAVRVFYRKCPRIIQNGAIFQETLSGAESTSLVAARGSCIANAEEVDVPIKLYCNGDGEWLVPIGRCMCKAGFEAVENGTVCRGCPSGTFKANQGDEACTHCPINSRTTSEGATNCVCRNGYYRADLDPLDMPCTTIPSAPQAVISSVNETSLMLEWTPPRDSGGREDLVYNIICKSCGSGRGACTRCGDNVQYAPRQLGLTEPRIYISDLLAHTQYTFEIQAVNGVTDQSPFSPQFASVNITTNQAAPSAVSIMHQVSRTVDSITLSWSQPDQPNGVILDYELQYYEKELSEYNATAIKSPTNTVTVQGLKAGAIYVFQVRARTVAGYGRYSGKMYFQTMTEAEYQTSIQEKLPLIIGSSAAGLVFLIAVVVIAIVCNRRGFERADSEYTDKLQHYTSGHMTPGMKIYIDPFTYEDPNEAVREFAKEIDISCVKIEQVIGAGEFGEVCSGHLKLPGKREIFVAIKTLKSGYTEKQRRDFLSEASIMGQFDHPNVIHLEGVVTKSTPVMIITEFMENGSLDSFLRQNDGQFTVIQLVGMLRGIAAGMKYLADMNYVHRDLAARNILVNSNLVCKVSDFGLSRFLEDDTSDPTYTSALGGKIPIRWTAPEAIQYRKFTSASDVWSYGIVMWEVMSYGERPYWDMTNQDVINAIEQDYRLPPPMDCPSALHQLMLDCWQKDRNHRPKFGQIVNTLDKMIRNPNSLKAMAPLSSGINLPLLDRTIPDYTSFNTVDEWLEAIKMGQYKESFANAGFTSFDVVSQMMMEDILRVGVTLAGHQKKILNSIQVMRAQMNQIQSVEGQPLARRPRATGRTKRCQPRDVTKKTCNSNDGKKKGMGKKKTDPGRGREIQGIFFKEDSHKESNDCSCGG
Sequence of Hck (P08631 whole entry, looked up): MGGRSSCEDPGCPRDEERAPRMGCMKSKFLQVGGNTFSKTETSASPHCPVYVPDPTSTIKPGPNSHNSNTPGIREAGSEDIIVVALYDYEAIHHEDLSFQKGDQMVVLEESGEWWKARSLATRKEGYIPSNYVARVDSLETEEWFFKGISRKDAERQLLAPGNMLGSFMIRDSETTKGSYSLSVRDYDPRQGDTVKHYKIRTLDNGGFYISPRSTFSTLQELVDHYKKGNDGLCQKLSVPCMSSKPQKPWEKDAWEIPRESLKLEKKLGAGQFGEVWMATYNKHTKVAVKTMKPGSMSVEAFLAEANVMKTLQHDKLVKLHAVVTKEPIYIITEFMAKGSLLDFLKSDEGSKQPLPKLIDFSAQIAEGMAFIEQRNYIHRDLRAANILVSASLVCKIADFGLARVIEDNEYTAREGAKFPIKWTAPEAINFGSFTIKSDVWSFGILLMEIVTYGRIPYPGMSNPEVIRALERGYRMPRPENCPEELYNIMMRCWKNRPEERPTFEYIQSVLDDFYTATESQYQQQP
Sequence of Fyn (P06241 whole entry, looked up): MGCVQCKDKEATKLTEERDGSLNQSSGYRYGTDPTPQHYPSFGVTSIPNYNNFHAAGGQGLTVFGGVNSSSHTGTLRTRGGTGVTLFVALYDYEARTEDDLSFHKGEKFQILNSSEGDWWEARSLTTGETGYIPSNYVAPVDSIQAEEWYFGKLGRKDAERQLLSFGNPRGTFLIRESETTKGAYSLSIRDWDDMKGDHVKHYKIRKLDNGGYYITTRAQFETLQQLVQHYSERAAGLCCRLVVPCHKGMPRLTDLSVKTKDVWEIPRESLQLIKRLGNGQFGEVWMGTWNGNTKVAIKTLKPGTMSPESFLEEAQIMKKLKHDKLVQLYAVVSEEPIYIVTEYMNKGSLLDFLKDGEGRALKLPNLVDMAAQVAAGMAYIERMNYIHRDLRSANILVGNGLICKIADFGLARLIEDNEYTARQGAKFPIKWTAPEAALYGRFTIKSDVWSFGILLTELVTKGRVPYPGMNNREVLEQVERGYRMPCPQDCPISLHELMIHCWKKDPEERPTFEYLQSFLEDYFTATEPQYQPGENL

SH2 binding enrichment (c-Src SH2) | SH2 binding enrichment (SHP2-C SH2) | SH2 binding enrichment (Grb2 SH2) | Sequence | phosphorylation enrichment (c-Abl (mouse)) | phosphorylation enrichment (Fyn) | phosphorylation enrichment (EPHB1) | phosphorylation enrichment (AncSZ) | phosphorylation enrichment (Fes) | phosphorylation enrichment (FGFR3) | phosphorylation enrichment (EPHB2) | phosphorylation enrichment (MERTK) | phosphorylation enrichment (Fer (mouse)) | phosphorylation enrichment (Hck) | phosphorylation enrichment (c-Src) | phosphorylation enrichment (FGFR1) | phosphorylation enrichment (Jak2)
0.568 | 0.746 | 0.914 | MWGSDYVHLSR [MAP3K4_Y582_Q584H] | 0.804 | 0.472 | 3.2 | 0.951 | 0.693 | 1.82 | 1.47 | 0.53 | 0.417 | 0.486 | 0.471 | 3.31 | 1.72
1.95 | 0.945 | 0.81 | NACGLYHKMNG [GATA5_Y216] | 0.525 | 0.371 | 0.508 | 0.795 | 1.03 | 0.567 | 0.447 | 0.624 | 0.673 | 0.533 | 0.523 | 0.581 | 0.798
0.435 | 0.636 | 0.676 | NAMRRHIEEFQ [MNS1_Y244_Y244H] | 0.628 | 0.367 | 0.398 | 0.634 | 0.741 | 0.497 | 0.411 | 0.469 | 0.346 | 0.366 | 0.347 | 0.348 | 0.672
1.23 | 0.866 | 1.02 | NARGLYYKLHN [GATA2_Y376_C373R] | 0.874 | 0.572 | 0.595 | 1.11 | 0.975 | 1.02 | 0.586 | 2.59 | 0.496 | 0.954 | 0.695 | 1.08 | 2.12
0.689 | 0.721 | 0.973 | NCFKFYMSDDI [ATRX_Y204_YF] | 0.95 | 0.386 | 0.605 | 1.2 | 1.23 | 0.745 | 0.53 | 0.394 | 0.521 | 0.512 | 0.447 | 0.565 | 1.17
1.52 | 0.799 | 0.97 | NCFKYYMSDDI [ATRX_Y204] | 1.17 | 0.491 | 0.748 | 1.33 | 1.51 | 0.931 | 0.625 | 0.562 | 0.496 | 0.548 | 0.811 | 0.959 | 1.32
0.531 | 0.684 | 0.915 | NCLREYVAGRF [CRB1_Y711] | 0.651 | 0.487 | 0.469 | 0.702 | 0.891 | 0.51 | 0.554 | 0.461 | 0.417 | 0.411 | 0.555 | 0.53 | 0.91
0.606 | 0.748 | 1 | NDDDVYRSLEE [VAV2_Y142] | 0.898 | 0.53 | 0.6 | 1.19 | 1.23 | 0.793 | 0.722 | 0.524 | 0.526 | 0.665 | 0.584 | 0.608 | 1.24
0.57 | 0.902 | 0.85 | NDEDIYKGLPD [VAV3_Y141] | 0.802 | 0.879 | 0.727 | 1.23 | 1.21 | 0.794 | 0.674 | 0.444 | 0.534 | 0.878 | 0.837 | 0.584 | 0.947
0.67 | 0.745 | 0.787 | NDHHFYLEGTL [ALDOB_Y223_V222F] | 0.646 | 0.398 | 0.497 | 0.939 | 1.19 | 0.696 | 0.547 | 0.409 | 0.498 | 0.43 | 0.392 | 0.489 | 0.964
0.482 | 0.505 | 0.728 | NELTYYCYKKD [CD59_Y87_C89Y] | 5.45 | 3.84 | 0.804 | 1.81 | 1.51 | 1.98 | 0.826 | 1.77 | 0.692 | 4.17 | 4.48 | 2.1 | 2
0.47 | 0.546 | 0.68 | NGSFLYVIISQ [LRP1B_Y1988_R1987L] | 0.931 | 0.367 | 0.844 | 1.27 | 1.44 | 0.88 | 0.666 | 0.468 | 0.663 | 0.539 | 0.403 | 0.468 | 1.2
3 | 0.561 | 1.07 | NHQYDYTFDWT [CSNK1A1_Y294] | 0.646 | 0.66 | 0.606 | 1.38 | 0.991 | 2.67 | 0.767 | 1.04 | 0.569 | 0.543 | 1.62 | 3.99 | 0.899
0.568 | 0.644 | 1.07 | NKEPRYQEEPP [TJP2_Y479_D482E] | 0.907 | 0.507 | 0.499 | 1.1 | 1.18 | 0.685 | 0.67 | 0.501 | 0.43 | 0.508 | 0.421 | 0.444 | 0.915
0.456 | 0.61 | 0.916 | NLTVNYKKNLI [SQOR_Y259] | 0.495 | 0.351 | 0.486 | 0.669 | 1.05 | 0.461 | 0.401 | 0.435 | 0.427 | 0.389 | 0.43 | 0.427 | 0.619
0.573 | 0.827 | 0.914 | NPQKSYFILLY [WAS_Y83_R86L] | 0.719 | 0.421 | 0.657 | 0.958 | 1.19 | 1.38 | 0.551 | 0.396 | 0.437 | 0.434 | 0.416 | 1.79 | 1.19
0.574 | 0.753 | 0.825 | NPSFNYEIVNR [DYNC1H1_Y3379_YF] | 0.588 | 0.445 | 2.91 | 1.15 | 1.19 | 0.666 | 1.29 | 0.387 | 0.514 | 0.535 | 0.388 | 0.488 | 1.1

SH2 binding enrichment (c-Src SH2) | SH2 binding enrichment (SHP2-C SH2) | SH2 binding enrichment (Grb2 SH2) | Sequence | phosphorylation enrichment (c-Abl (mouse)) | phosphorylation enrichment (Fyn) | phosphorylation enrichment (EPHB1) | phosphorylation enrichment (AncSZ) | phosphorylation enrichment (Fes) | phosphorylation enrichment (FGFR3) | phosphorylation enrichment (EPHB2) | phosphorylation enrichment (MERTK) | phosphorylation enrichment (Fer (mouse)) | phosphorylation enrichment (Hck) | phosphorylation enrichment (c-Src) | phosphorylation enrichment (FGFR1) | phosphorylation enrichment (Jak2)
0.436 | 0.774 | 0.755 | NREGVYRVFAP [TGFBI_Y537_T538R] | 0.636 | 4.68 | 0.364 | 0.603 | 0.556 | 0.495 | 0.376 | 0.533 | 0.397 | 1.79 | 4.67 | 0.409 | 0.484
1.23 | 0.608 | 0.792 | NSNAAYEESHF [LRIF1_Y714_Q716E] | 0.659 | 0.434 | 0.483 | 0.849 | 0.919 | 0.614 | 0.499 | 0.385 | 0.504 | 0.496 | 0.475 | 0.443 | 0.87
0.401 | 0.614 | 0.773 | NSVLVYRNGDP [DCDC2_Y22_K17N] | 0.534 | 0.443 | 0.532 | 0.621 | 0.678 | 0.533 | 0.463 | 0.454 | 0.373 | 0.492 | 0.591 | 0.393 | 0.627
0.717 | 0.96 | 1.06 | NVADHYGVFKP [ATP6V0D2_Y271_YF] | 0.538 | 4.49 | 0.3 | 0.557 | 0.691 | 0.408 | 0.441 | 0.435 | 0.455 | 3.18 | 4.14 | 0.443 | 0.404
0.742 | 0.607 | 0.757 | NVVVPYEPPEV [TP53_Y220_S215N] | 0.768 | 0.641 | 0.612 | 1.11 | 1.15 | 0.69 | 0.708 | 0.493 | 0.58 | 0.56 | 0.543 | 0.443 | 1.11
2.63 | 0.819 | 3.18 | NYSKMYCNPDA [KNL1_Y489_A486S] | 0.566 | 0.396 | 0.536 | 0.794 | 0.914 | 0.521 | 0.45 | 0.414 | 0.435 | 0.469 | 0.349 | 0.483 | 0.819
1.84 | 0.702 | 1.16 | NYYDLYGGEKF [PTPN11_Y66_D61N] | 0.725 | 5.82 | 10.6 | 1.48 | 1.03 | 11.7 | 12.1 | 7.49 | 2.32 | 5.52 | 4.47 | 13.4 | 1.97
0.423 | 0.502 | 0.765 | PADSGYPAFLG [ATP6V1A_Y374_YF] | 1.12 | 1.04 | 1.51 | 1.72 | 1.88 | 1.36 | 0.6 | 0.87 | 0.759 | 0.959 | 0.772 | 0.981 | 1.1
0.686 | 0.751 | 0.857 | PAIERYVVVCK [RHO_Y136_L131P] | 0.928 | 0.612 | 0.896 | 1.08 | 1.41 | 0.851 | 0.846 | 0.374 | 0.473 | 0.551 | 0.474 | 0.505 | 1.08
1.25 | 1 | 1.29 | PDMHSYVVRFN [GRIN2D_Y732_M733V_YF] | 0.873 | 0.467 | 0.658 | 0.882 | 1.04 | 0.797 | 0.464 | 0.531 | 0.411 | 0.431 | 0.553 | 0.78 | 1.81
0.658 | 1.07 | 1.08 | PELINYHQHYS [BTK_Y361_N365Y] | 0.563 | 0.662 | 1.23 | 0.742 | 0.688 | 0.585 | 1.68 | 0.319 | 0.427 | 0.356 | 0.5 | 0.769 | 0.577
0.704 | 0.763 | 1.07 | PELINYHQPNS [BTK_Y361_H364P] | 0.574 | 0.597 | 1.04 | 0.928 | 0.908 | 0.857 | 0.727 | 0.657 | 0.678 | 0.734 | 0.8 | 0.723 | 0.829
0.676 | 0.682 | 0.742 | PFAEPYADFGG [APBA1_Y187_S184A_YF] | 0.638 | 0.72 | 0.695 | 1.13 | 1.2 | 0.802 | 0.593 | 0.571 | 0.38 | 0.673 | 2.43 | 0.68 | 0.993
0.471 | 0.568 | 0.739 | PFFTSYPPSPD [GDAP2_Y491_YF] | 0.901 | 0.498 | 0.438 | 0.907 | 1.15 | 0.644 | 0.447 | 0.629 | 0.507 | 0.356 | 0.588 | 0.557 | 1.14
7.89 | 0.832 | 0.874 | PFQGAYLEINK [MYO1B_Y967] | 0.497 | 0.526 | 0.609 | 1.03 | 1.09 | 0.763 | 0.577 | 0.464 | 0.401 | 0.361 | 0.607 | 0.485 | 1.24
1.07 | 1.04 | 1.22 | PFRQWYESHFA [RPS8_Y113_YF] | 0.764 | 0.586 | 0.827 | 1.08 | 1.11 | 0.524 | 0.786 | 0.906 | 3.73 | 0.68 | 0.972 | 0.731 | 0.963

Reference: the supplement of paper PMC10065799, “High-throughput profiling of sequence recognition by tyrosine kinases and SH2 domains using bacterial peptide display” (eLife, 2023)
